The target in experiment [1] is T1, COMMD1 fragment, amino acids 110-190 (clone pGBKL2 (110-190)) (human, UniProt Q8N668 110-190).
T1 construct: range 110-190; also called COMM domain; not shown: two-hybrid vector fusion partner; not described
Put plainly: yeast two-hybrid with deletion clones. As to the method: (§1) FIG. 1. The figure illustrates the physical interaction between the L2 peptide and COMMD1. This was carried out by the technique of two hybrids in yeast. As negative controls were used the mating of the yeast strain AH109 transformed with the empty vector (pGBKT7) and the fragments of COMMD1 transformed with the Y187 strain. For the identification of the interaction, mating of the strain AH109 transformed with vector carrying the sequence of L2 and each COMMD1 fragment transformed into strain Y187 was carried out. As a positive control, the PCL1 mating bearing the GAL4 transcription factor was used. As it can be noted, the interaction occurs with the plasmids carrying the complete sequence of the COMMD1 gene and the construction containing the amino acids 110-190 of the COMMD1 protein.
(§2) corresponding to the L2 peptide sequence: […] For cloning these sequences in the pGBKT7 NcoI-BamHI vector, sequences complementary to these sites were added at the ends of the oligonucleotides. The pGBKL2-1 recombinant plasmid, which carries the L2 peptide sequence was verified by restriction analysis and sequencing. The plasmid was transformed into the AH109 yeast strain by the lithium acetate method and grown in SD-Trp medium. It was verified that it could not be self-activated when grown on SD-Trp-His plates. […]

Experiment [2] concerns the target T2, COMMD1 protein, amino acids 6-190 (two-hybrid clone L2-21) (human, UniProt Q8N668 6-190).
T2 construct: range 6-190; Prey clone found in the two-hybrid screen; also called MURR1; not shown: fusion partner of the human liver cDNA library (prey) vector in strain Y187; not described
Put plainly: yeast two-hybrid screen of a human liver cDNA library, verified by mating. As to the method:
as §1, §2

T1 sequence (Q8N668 110-190): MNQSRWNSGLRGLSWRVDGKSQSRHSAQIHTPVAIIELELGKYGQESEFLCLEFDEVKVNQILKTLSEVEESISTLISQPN
T2 sequence (Q8N668 6-190): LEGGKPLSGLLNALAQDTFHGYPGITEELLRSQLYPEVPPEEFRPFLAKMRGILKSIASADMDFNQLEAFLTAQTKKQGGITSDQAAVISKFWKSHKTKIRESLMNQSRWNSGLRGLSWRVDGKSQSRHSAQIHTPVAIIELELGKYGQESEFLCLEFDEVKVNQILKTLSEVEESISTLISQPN

B1: L2 peptide expressed from plasmid pGBKL2-1 (pGBKT7 vector) in yeast strain AH109 (peptide)
chain: HARIKPTFRRLKWKYKGKFW
notes: Two-hybrid bait; not shown: fusion partner encoded by the pGBKT7 two-hybrid bait vector
For B1, the binding result in experiment [1] and in experiment [2] was “binds” each time.

Source of the values: US20130224313A1 (CENTRO DE INGENIERIA GENETICA Y BIOTECNOLOGIA, published 2013).
